As a reminder, the Kd is the equilibrium constant for the complex coming apart.

The values below come from PMC3948214 (Biochemistry, 2013).

Data set [1] has as its target HpFabZ (Helicobacter pylori) (UniProt B5Z920). In words: SPR. The note with it: cited from earlier work.
The data set “crystal structure” concerns the molecule itself. In words: crystal structure.

Chain of HpFabZ (Helicobacter pylori) (B5Z920 whole entry): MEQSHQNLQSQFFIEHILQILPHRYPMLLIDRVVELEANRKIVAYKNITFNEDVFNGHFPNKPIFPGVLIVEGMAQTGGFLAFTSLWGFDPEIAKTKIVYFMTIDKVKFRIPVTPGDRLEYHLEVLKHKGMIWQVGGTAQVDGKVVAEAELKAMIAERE

Regarding HpACP (from UniProt B5Z6T1), the Kd in data set [1] was 10 nM.

B1: RifDH10, the dehydratase domain from the terminal module (module 10) of the rifamycin polyketide synthase (domain or fragment, Amycolatopsis mediterranei, UniProt O54593 2569-2872, looked up)
chain: ADTASDAVSLGLAGADHPLLGAVVQLPQSDGLVFTSRLSLRSHPWLADHAVRDVVIVPGTGLVELAVRAGDEAGCPVLDELVIEAPLVVPRRGGVRVQVALGGPADDGSRTVDVFSLREDADSWLRHATGVLVPENRPRGTAAFDFAAWPPPEAKPVDLTGAYDVLADVGYGYGPTFRAVRAVWRRGSGNTTETFAEIALPEDARAEAGRFGIHPALLDAALHSTMVSAAADTESYGDEVRLPFAWNGLRLHAAGASVLRVRVAKPERDSLSLEAVDESGGLVVTLDSLVGRPVSNDQLTTAAG
Turning to B1, the binding result in “crystal structure” is reported as “binds”.
